The data set deals with the molecule itself. Put plainly: SEC; Superdex 75 on HPLC, absorbance at 280 nm; 100 μM peptide in buffer pH 5.0 (100 mM MES, 100 mM KCl) at 25 °C, aliquots at 0, 5, 10, 15 and 30 min of the aggregation reaction; soluble WT peptide at the same concentration as control.

B1: TTR 26–57 peptide bearing the K35L substitution (peptide)
peptide: not shown
notes: transthyretin (TTR), human, residues 26-57 with K35L; also called K35L peptide; 26–57 K35L; source: synthetic peptide; bought: Genemed Synthesis
As usually defined, the stoichiometry N is a count of units in the complex or per binding partner. As for B1, the “stoichiometry N” value fell in the range of 10 to 15 units.

The values are drawn from publication PMC4192486, “The Importance of a Gatekeeper Residue on the Aggregation of Transthyretin” (The Journal of Biological Chemistry, 2014).
